Experimental data published in paper PMC3273594.

Columns and labels:
[1] = target: TOAC labeled wild-type PLB; test: SDS-PAGE
[2] = target: T1, Wild-type Phospholamban, P61014; test: SDS-PAGE; conditions: remark: other sources report otherwise
T1 chain: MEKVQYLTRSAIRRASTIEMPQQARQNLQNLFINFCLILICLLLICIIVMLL

Work on TOAC labeled wild-type PLB yielded a stoichiometry N [1] of 5.

B1: Wild-type Phospholamban, P61014 1-52 (natural protein)
chain: MEKVQYLTRSAIRRASTIEMPQQARQNLQNLFINFCLILICLLLICIIVMLL
B1 was tested, and the stoichiometry N [2] was 5.
